Values belong to the binder of their own block, whether it stands above or below them.
Columns and labels:
[1] = target: T1, human CCR3 expressed on 4DE4 cells (human) (UniProt P51677)
T1 sequence: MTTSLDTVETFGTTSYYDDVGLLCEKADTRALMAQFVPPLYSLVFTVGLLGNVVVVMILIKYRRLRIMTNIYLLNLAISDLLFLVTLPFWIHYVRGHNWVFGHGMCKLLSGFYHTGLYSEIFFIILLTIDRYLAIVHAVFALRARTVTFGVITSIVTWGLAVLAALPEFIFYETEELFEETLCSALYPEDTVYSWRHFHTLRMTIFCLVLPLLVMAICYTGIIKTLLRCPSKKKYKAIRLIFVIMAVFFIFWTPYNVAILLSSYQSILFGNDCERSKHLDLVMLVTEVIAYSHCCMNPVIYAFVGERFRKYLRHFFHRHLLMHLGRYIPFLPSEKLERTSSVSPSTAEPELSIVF

[2] = target: T2, mouse CCR8 expressed on FlpInCHO cells (mouse) (UniProt P56484)
T2 sequence: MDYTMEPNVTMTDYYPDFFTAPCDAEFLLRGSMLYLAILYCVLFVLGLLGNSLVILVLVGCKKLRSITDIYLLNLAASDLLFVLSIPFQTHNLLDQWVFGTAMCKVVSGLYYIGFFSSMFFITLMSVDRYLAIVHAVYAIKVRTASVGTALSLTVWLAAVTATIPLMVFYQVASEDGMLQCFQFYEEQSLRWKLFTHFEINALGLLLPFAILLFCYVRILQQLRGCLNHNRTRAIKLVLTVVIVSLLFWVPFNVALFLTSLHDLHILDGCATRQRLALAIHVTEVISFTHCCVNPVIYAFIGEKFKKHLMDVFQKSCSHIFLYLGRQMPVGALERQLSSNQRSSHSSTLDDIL

[3] = target: T3, mCCR8 tagged at the N-terminus with a C-myc epitope tag and at the C-terminus with Renilla luciferase variant 8 (mouse) (UniProt P56484)
T3 sequence: T2 sequence

[4] = target: human CCR8 expressed on transfected cells (human, UniProt P51685 1-355); assay: cell-based or functional assay
[5] = target: CCR8 tagged at the N-terminus with a C-myc epitope tag and at the C-terminus with Renilla luciferase variant 8 (human, UniProt P51685 1-355); assay: cell-based or functional assay
CCR8 tagged at the N-terminus with a C-myc epitope tag and at the C-terminus with Renilla luciferase variant 8, sequence (P51685 whole entry, change not shown): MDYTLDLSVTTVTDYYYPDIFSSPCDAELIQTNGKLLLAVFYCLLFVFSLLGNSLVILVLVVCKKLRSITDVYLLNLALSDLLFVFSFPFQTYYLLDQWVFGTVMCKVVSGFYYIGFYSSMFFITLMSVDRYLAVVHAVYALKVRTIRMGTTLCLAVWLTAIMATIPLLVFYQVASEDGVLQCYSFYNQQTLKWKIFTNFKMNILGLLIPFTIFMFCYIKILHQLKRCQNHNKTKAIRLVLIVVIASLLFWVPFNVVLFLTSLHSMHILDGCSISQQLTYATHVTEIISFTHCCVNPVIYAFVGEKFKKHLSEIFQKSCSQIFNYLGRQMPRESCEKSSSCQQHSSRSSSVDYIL

human CCR8 expressed on transfected cells, sequence (P51685 whole entry): as the sequence (P51685 whole entry, change not shown) above

inhibition by CCL18 of chemotaxis of 4DE4-CCR3 cells to 1 nM CCL11 (blocks CCL11 with CCR3); 50% inhibitory concentration [1]: < 50 nM
B1: CCL18(1–69) (ligand)
chain: AQVGTNKELCCLVYTSWQIPQKFIVDYSETSPQCPKPGVILLTKRGRQICADPNKKWVQKYISDLKLNA

G protein activation in FlpIn CHO cells stably expressing mCCR8; EC50 [2]: 11 nM
cAMP inhibition in FlpIn CHO cells stably expressing mCCR8; EC50 [2]: 30 nM
β-arrestin2 recruitment to mCCR8 (BRET) in FlpIn CHO cells; EC50 of mCCL1 [3]: 24 nM
B2: murine CCL1 (ligand)
chain: KSMLTVSNSCCLNTLKKELPLKFIQCYRKMGSSCPDPPAVVFRLNKGRESCASTNKTWVQNHLKKVNPC

G protein activation (Gαi2; BRET of Gβγ with a GRK fragment) in FlpIn CHO cells stably expressing CCR8; EC50 [4]: 46 nM
inhibition of forskolin-stimulated cAMP synthesis (CAMYEL biosensor) in FlpIn CHO cells stably expressing CCR8; EC50 [4]: 26 nM
β-arrestin2 recruitment to CCR8 (BRET) in FlpIn CHO cells; EC50 of CCL1 [5]: 21 nM
B3: CCL1 (ligand, human, UniProt P22362 24-96, looked up)
chain: KSMQVPFSRCCFSFAEQEIPLRAILCYRNTSSICSNEGLIFKLKRGKEACALDTVGWVQRHRKMLRHCPSKRK
